Positions count from the first letter of the chain named. Names may count otherwise.

The subject of experiment [1] is mouse BRS3 (mBRS3). In words: Luciferase reporter, constitutive activity (WT, mutants, truncated; with/without inhibitor). The class given is cell-based. Details: key to constitutive luciferase activity: fold over pcDNA-transfected blank control (blank = 1). The following applies: CRE, no ligand. How it is done:
(§1) To detect constitutive activity of BRS3, HEK293 cells were seeded in 24-well plates and cotransfected with the CRE/NFAT-RE/SRF-RE/SRE luciferase reporter plasmids (50 ng), the BRS3 from different species, or BRS3 mutants with different doses (10 ng/50 ng/150 ng); after 24 h, cells were further incubated in serum-free media for another 12 h before luciferase assay. As for peptide supplementation treatment, HEK293 cells were cotransfected with the CRE/NFAT-RE/SRF-RE/SRE luciferase reporter plasmids (50 ng) and various genes (300 ng) of the bombesin receptor family. […] Luciferase activities were determined using luciferase assay kits (Beyotime, Shanghai, China) and normalized to β-galactosidase activity. All experiments were performed at least three times in triplicates. HEK293 cells transfected with pcDNA were used as a blank control in all luciferase experiments, and the fold was calculated compared to blank control.
In general terms: Reporter assays use an easily measured gene product as a stand-in for the process of interest.

The test system of experiment [2] is human BRS3 (hBRS3). The description is as above. The class given is cell-based. The following applies: for luciferase, CRE / luciferase, NFAT / luciferase, SRE / luciferase, SRF: Blank = 1; for CRE luciferase reporter activity relative to Blank (Blank = 1) / NFAT luciferase reporter activity relative to Blank (Blank = 1) / SRF luciferase reporter activity relative to Blank (Blank = 1): constitutive. How it is done:
as §1

Where [3] appears, read: hBRS3 WT and mutant 3, replicate 1.
Setting [4] is: hBRS3 WT and mutant 3, replicate 2.
[5] abbreviates: hBRS3 WT and mutant 3, third line, unlabelled, equals mean of the two replicates.
Where [6] appears, read: full-length hBRS3 and truncated N-hBRS3, replicate 1.
The mark [7] stands for this setting: full-length hBRS3 and truncated N-hBRS3, replicate 2.
The mark [8] stands for this setting: full-length hBRS3 and truncated N-hBRS3, third line, unlabelled, equals mean of the two replicates.

B1: mBRS3-Q156A (protein, UniProt O54798 1-399, looked up, variant Q156A)
Bombesin receptor subtype-3: MSQRQSQSPNQTLISITNDTETSSSVVSNDTTHKGWTGDNSPGIEALCAIYITYAGIISVGILGNAILIKVFFKTKSMQTVPNIFITSLAFGDLLLLLTCVPVDATHYLAEGWLFGKVGCKVLSFIRLTSVGVSVFTLTILSADRYKAVVKPLERAPPNAILKTCAKAGGIWIVSMIFALPEAIFSNVYTFQDPNRNVTFESCNSYPISERLLQEIHSLLCFLVFYIIPLSIISVYYSLIARTLYKSTLNIPTEEQSHARKQIESRKRIAKTVLVLVALFALCWLPNHLLYLYHSFTYESYANHSDVPFVIIIFSRVLAFSNSCVNPFALYWLSKTFQQHFKAQLCCLKAEQPEPPLGDIPLNNLTVMGRVPATGSAHVSEISVTLFSGSSAKKGEDKV
As to B1, the constitutive luciferase activity in experiment [1] (mean) came to 16.9342; in experiment [1] (replicate 1), 16.8106; in experiment [1] (replicate 2), 17.0578.

B2: mBRS3-P158A (protein, UniProt O54798 1-399, looked up, variant P158A)
Bombesin receptor subtype-3: B1 Bombesin receptor subtype-3 with A156Q, P158A
Take B2: the constitutive luciferase activity in experiment [1] (mean) is 15.9368; in experiment [1] (replicate 1) it was 15.6335; in experiment [1] (replicate 2), 16.2401.

B3: mBRS3-R370A (protein, UniProt O54798 1-399, looked up, variant R370A)
Bombesin receptor subtype-3: B1 Bombesin receptor subtype-3 with A156Q, R370A
Consider B3, for which the constitutive luciferase activity in experiment [1] (mean) was found to be 17.8056; in experiment [1] (replicate 1) it was 17.9268; in experiment [1] (replicate 2) it was 17.6843.

B4: mBRS3-P372A (protein, UniProt O54798 1-399, looked up, variant P372A)
Bombesin receptor subtype-3: B1 Bombesin receptor subtype-3 with A156Q, P372A
As for B4, the figures for the constitutive luciferase activity in experiment [1] (mean), in experiment [1] (replicate 1) and in experiment [1] (replicate 2) were 17.158, 17.4198 and 16.8962, respectively.

B5: human (protein, UniProt P32247 1-399, looked up)
Bombesin receptor subtype-3: MAQRQPHSPNQTLISITNDTESSSSVVSNDNTNKGWSGDNSPGIEALCAIYITYAVIISVGILGNAILIKVFFKTKSMQTVPNIFITSLAFGDLLLLLTCVPVDATHYLAEGWLFGRIGCKVLSFIRLTSVGVSVFTLTILSADRYKAVVKPLERQPSNAILKTCVKAGCVWIVSMIFALPEAIFSNVYTFRDPNKNMTFESCTSYPVSKKLLQEIHSLLCFLVFYIIPLSIISVYYSLIARTLYKSTLNIPTEEQSHARKQIESRKRIARTVLVLVALFALCWLPNHLLYLYHSFTSQTYVDPSAMHFIFTIFSRVLAFSNSCVNPFALYWLSKSFQKHFKAQLFCCKAERPEPPVADTSLTTLAVMGTVPGTGSIQMSEISVTSFTGCSVKQAEDRF
Turning to B5, in experiment [2] (value 1 of 3), the “luciferase, CRE” value is given as 4.2545; the “luciferase, NFAT” value is 6.3808; the “luciferase, SRE” value was found to be 1.2780; the “luciferase, SRF” value is on record as 4.0202. For the same molecule, in experiment [2] (value 2 of 3), the “luciferase, CRE” value worked out at 3.9246; the “luciferase, NFAT” value amounted to 6.2351; the “luciferase, SRE” value was 1.0242; the “luciferase, SRF” value is given as 3.9201. For the same molecule, in experiment [2] (value 3 of 3), the “luciferase, CRE” value was 4.0896; the “luciferase, NFAT” value was determined as 6.5264; the “luciferase, SRE” value is recorded as 1.5319; the “luciferase, SRF” value was determined as 4.1204.

B6: hBRS3-WT (protein, UniProt P32247 1-399, looked up)
Bombesin receptor subtype-3: B5 Bombesin receptor subtype-3
Turning to B6, in experiment [2] (setting [3]), the “CRE luciferase reporter activity relative to Blank (Blank = 1)” value is reported as 4.2545, the “NFAT luciferase reporter activity relative to Blank (Blank = 1)” value is on record as 6.5264 and the “SRF luciferase reporter activity relative to Blank (Blank = 1)” value turned out to be 4.1204. Besides, in experiment [2] (setting [4]), the “CRE luciferase reporter activity relative to Blank (Blank = 1)” value is reported as 3.9246, the “NFAT luciferase reporter activity relative to Blank (Blank = 1)” value is 6.2351 and the “SRF luciferase reporter activity relative to Blank (Blank = 1)” value is given as 3.9201. Further, in experiment [2] (setting [5]), the “CRE luciferase reporter activity relative to Blank (Blank = 1)” value amounted to 4.0896, the “NFAT luciferase reporter activity relative to Blank (Blank = 1)” value was found to be 6.3808 and the “SRF luciferase reporter activity relative to Blank (Blank = 1)” value stood at 4.0202.

B7: hBRS3 (protein)
chain: B5 Bombesin receptor subtype-3
modifications: left off: V5 (from the vector pcDNA3.1-V5-His), end not stated, state not stated | His tag (from the vector pcDNA3.1-V5-His), end not stated, state not stated
As to B7, the “CRE luciferase reporter activity relative to Blank (Blank = 1)” value in experiment [2] (setting [6]) turned out to be 3.5016; in experiment [2] (setting [7]), 4.7486; in experiment [2] (setting [8]), 4.1251. Further, the “NFAT luciferase reporter activity relative to Blank (Blank = 1)” value in experiment [2] (setting [6]) is reported as 5.5943; in experiment [2] (setting [7]), 5.6987; in experiment [2] (setting [8]), 5.6465. For the same molecule, the “SRF luciferase reporter activity relative to Blank (Blank = 1)” value in experiment [2] (setting [6]) is recorded as 3.202; in experiment [2] (setting [7]), 3.9147; in experiment [2] (setting [8]), 3.5584.
